Values belong to the binder of their own block, whether it stands above or below them.
Experiments:
[1] = target: T1, Human Macrophage Receptor with Collagenous Structure (MARCO), full length, on cells (human, UniProt Q9UEW3 1-520); assay: flow cytometry, cells overexpressing human MARCO
T1 construct: the cell type is named under assay; also called huMARCO; HuMARCO
T1 sequence: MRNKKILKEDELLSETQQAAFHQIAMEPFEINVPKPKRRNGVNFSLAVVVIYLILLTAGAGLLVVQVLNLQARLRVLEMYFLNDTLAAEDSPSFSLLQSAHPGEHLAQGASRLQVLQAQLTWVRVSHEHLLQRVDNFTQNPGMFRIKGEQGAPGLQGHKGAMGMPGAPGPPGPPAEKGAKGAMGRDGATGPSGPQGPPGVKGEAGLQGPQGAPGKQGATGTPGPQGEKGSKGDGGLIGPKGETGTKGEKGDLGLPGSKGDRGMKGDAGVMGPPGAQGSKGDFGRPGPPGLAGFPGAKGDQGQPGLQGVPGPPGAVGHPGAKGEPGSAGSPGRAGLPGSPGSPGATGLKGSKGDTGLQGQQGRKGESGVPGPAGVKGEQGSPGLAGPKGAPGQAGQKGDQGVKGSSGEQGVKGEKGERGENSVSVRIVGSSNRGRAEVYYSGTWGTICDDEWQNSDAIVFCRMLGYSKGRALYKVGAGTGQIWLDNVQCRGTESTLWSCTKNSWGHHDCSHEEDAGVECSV
Description: Supernatants were removed and cell pellets were resuspended in Ca²⁺+ and Mg²⁺+ Dulbecco's phosphate-buffered saline (D-PBS) at 1×10⁶ cells/ml. 100,000 cells/well were plated onto U-bottom 96-well plates for staining and all centrifugation steps were performed at 1500 rpm at 4° C. for 5 min and samples were kept protected from light throughout the protocol. Cells were pelleted and resuspended in 100 μl of Zombie NIR viability dye (BioLegend) prepared by diluting Zombie NIR dimethyl sulfoxide (DMSO) stock 1000-fold in D-PBS. Cells were stained by incubation for 10 min at room temperature (RT) in the dark, followed by quenching the staining reaction with the addition of 100 μl of Staining Medium (D-PBS containing 2% FBS and 2 mM ethylenediaminetetraacetic acid (EDTA). Cells were pelleted and resuspended in 100 μl of the different antibodies and hybridomas supernatants needed for screening and corresponding isotype controls in freshly prepared staining medium, such as PI-M014 and mIgG2b isotype. All mAbs were tested at the final top concentration of 100 nM (15 μg/ml) followed by an 8-point three-fold serial dilution, including 0 mg/ml control. Staining was carried out for 1 hour (hr) on ice, followed by 2 washes in Staining Medium. Cells were then pelleted and resuspended in 100 μl of allophycocyanin (APC)-conjugated goat anti-mouse IgG (Fc-specific) secondary antibody, prepared by 500-fold dilution of the antibody stocks in Staining Medium, and incubated for 30 min on ice. […] Flow cytometry data were analyzed using FlowJo software (version 10.6.1) and data were processed and further analyzed in Microsoft Excel and GraphPad Prism software (version 8). Half-maximal effective concentrations (EC₅₀) were calculated based on geometric mean fluorescence intensities (gMFI). In case when the plates were not able to be analyzed on the cytometer, cells were pelleted after the washes and fixed in 100 μl of 2% paraformaldehyde (PFA), prepared by diluting the 16% (w/v) stock (Thermo Fisher) in DPBS, for 15 min at RT. […]

[2] = target: T2, Mouse MARCO, full length, on cells (mouse, UniProt Q60754 1-518); assay: flow cytometry, 293T (muMARCO)
T2 construct: whole, on cells; the cell type is named under assay; also called muMARCO; MuMARCO
T2 sequence (looked up): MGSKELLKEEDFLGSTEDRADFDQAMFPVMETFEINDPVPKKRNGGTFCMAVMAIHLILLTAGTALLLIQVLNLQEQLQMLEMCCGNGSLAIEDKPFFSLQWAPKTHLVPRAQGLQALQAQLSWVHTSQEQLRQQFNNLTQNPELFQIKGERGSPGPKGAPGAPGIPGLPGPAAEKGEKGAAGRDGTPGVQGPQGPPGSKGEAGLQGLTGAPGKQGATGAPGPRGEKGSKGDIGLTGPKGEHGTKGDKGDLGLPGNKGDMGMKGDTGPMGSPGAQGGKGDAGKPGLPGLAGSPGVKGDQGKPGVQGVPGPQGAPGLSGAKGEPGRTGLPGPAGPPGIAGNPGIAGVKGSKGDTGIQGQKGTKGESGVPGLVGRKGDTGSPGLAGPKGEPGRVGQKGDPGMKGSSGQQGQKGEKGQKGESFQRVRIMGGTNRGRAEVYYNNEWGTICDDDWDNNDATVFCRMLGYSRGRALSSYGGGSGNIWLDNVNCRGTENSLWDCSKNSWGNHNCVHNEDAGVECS

[3] = target: T3, N-terminally polyhistidine tagged human MARCO ECD (147-520), recombinant (human, UniProt Q9UEW3 147-520); assay: Biacore (SPR), recombinant human MARCO
T3 construct: also called PI-RG-3000; recombinant human MARCO; not shown: N-terminal polyhistidine tag
T3 sequence: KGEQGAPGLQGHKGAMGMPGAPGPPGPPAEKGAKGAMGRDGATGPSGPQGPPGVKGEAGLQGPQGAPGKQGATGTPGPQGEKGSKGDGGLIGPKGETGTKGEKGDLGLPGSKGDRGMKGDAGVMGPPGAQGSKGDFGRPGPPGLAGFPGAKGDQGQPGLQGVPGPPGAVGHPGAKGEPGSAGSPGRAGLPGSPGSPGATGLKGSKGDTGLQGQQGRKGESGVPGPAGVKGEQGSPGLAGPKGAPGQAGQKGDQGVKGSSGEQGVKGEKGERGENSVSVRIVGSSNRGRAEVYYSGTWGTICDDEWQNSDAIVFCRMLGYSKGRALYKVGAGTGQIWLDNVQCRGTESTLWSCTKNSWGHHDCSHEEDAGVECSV
Procedure, shortened: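 Antibodies were captured by anti-mouse Fc mAb amine-coupled to a CM4 chip (4500 RU target). Running buffer was 10 mM HEPES pH 7.4, 150 mM NaCl, 3 mM EDTA, 0.05% surfactant P20. Injections were at 0.625–10 nM with 90 s association and 600 s dissociation, and constants were fitted in BIAevaluation 3.1.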

[4] = target: T3, N-terminally polyhistidine tagged human …; assay: Biacore; deamidation stress sample (40 C 2 week)
[5] = target: T3, N-terminally polyhistidine tagged human …; assay: Biacore; oxidation stress sample (1 mM AAPH, 6 hrs)

EC50 [1]: 0.68 nM
B1: PI-3010-AB (antibody, human IgG1, kappa)
heavy: not shown
light: DIQMTQSPASLSTSLGETVSIECLASEGISNDLAWYQQKSGKSPQLLIYAASRLQDGVPSRFSGSGSGTRYSLKISGMQPEDEADYFCQQSYKYPLTFGSGTKLEIKRTVAAPSVFIFPPSDEQLKSGTASVVCLLNNFYPREAKVQWKVDNALQSGNSQESVTEQDSKDSTYSLSSTLTLSKADYEKHKVYACEVTHQGLSSPVTKSFNRGEC

EC50 [2]: 2.53 nM
B2: PI-HX-3061 (antibody, rat IgG2a)
heavy: EVQLVESGGGLVQPGSSLKLSCVASKFTFSNYGMNWIRQAPKKGLEWIALIYYNSNNKYYADSVKGRFTISRDNSKNTLYLEMNSLRSEDTAMYYCAKSLTGGSDYFDSWGQGVMVTVSSAETTAPSVYPLAPGTALKSNSMVTLGCLVKGYFPEPVTVTWNSGALSSGVHTFPAVLQSGLYTLTSSVTVPSSTWPSQTVTCNVAHPASSTKVDKKIVPRNCGGDCKPCICTGSEVSSVFIFPPKPKDVLTITLTPKVTCVVVDISQDDPEVHFSWFVDDVEVHTAQTRPPEEQFNSTFRSVSELPILHQDWLNGRTFRCKVTSAAFPSPIEKTISKPEGRTQVPHVYTMSPTKEEMTQNEVSITCMVKGFYPPDIYVEWQMNGQPQENYKNTPPTMDTDGSYFLYSKLNVKKEKWQQGNTFTCSVLHEGLHNHHTEKSLSHSP
light: DVQMTQSPSYLAASPGESVSISCKASKSIGTFLAWYQEKPEKTNKLLIYSGSTLQSGTPSRFSGSGSGTDFTLTIRNLEPEDFAVYYCQQHDEYPFTFGSGTKLEIKRADAAPTVSIFPPSTEQLATGGASVVCLMNNFYPRDISVKWKIDGTERRDGVLDSVTDQDSKDSTYSMSSTLSLTKADYESHNLYTCEVVHKTSSSPVVKSFNRNEC
notes: Parental rat hybridoma, rat IgG2a; cross reactive with human and mouse MARCO

Kd [3]: 0.51 nM | koff [3]: 0.000294 s⁻¹ | Kd [4]: 1.24 nM | Kd [5]: 1.29 nM
B3: PI-3015-AB (antibody, human IgG1, kappa)
heavy: not shown
light: DIQMTQSPSSLSASVGDRVTITCRASEGISNDLAWYQQKPGKAPKLLIYAASRLQSGVPSRFSGSGSGTDYTLTISSMQPEDFATYYCQQSYKYPLTFGQGTKLEIKRTVAAPSVFIFPPSDEQLKSGTASVVCLLNNFYPREAKVQWKVDNALQSGNSQESVTEQDSKDSTYSLSSTLTLSKADYEKHKVYACEVTHQGLSSPVTKSFNRGEC
